Target: T1, BMC12 (uncultured bacterium (metagenome))
T1 chain: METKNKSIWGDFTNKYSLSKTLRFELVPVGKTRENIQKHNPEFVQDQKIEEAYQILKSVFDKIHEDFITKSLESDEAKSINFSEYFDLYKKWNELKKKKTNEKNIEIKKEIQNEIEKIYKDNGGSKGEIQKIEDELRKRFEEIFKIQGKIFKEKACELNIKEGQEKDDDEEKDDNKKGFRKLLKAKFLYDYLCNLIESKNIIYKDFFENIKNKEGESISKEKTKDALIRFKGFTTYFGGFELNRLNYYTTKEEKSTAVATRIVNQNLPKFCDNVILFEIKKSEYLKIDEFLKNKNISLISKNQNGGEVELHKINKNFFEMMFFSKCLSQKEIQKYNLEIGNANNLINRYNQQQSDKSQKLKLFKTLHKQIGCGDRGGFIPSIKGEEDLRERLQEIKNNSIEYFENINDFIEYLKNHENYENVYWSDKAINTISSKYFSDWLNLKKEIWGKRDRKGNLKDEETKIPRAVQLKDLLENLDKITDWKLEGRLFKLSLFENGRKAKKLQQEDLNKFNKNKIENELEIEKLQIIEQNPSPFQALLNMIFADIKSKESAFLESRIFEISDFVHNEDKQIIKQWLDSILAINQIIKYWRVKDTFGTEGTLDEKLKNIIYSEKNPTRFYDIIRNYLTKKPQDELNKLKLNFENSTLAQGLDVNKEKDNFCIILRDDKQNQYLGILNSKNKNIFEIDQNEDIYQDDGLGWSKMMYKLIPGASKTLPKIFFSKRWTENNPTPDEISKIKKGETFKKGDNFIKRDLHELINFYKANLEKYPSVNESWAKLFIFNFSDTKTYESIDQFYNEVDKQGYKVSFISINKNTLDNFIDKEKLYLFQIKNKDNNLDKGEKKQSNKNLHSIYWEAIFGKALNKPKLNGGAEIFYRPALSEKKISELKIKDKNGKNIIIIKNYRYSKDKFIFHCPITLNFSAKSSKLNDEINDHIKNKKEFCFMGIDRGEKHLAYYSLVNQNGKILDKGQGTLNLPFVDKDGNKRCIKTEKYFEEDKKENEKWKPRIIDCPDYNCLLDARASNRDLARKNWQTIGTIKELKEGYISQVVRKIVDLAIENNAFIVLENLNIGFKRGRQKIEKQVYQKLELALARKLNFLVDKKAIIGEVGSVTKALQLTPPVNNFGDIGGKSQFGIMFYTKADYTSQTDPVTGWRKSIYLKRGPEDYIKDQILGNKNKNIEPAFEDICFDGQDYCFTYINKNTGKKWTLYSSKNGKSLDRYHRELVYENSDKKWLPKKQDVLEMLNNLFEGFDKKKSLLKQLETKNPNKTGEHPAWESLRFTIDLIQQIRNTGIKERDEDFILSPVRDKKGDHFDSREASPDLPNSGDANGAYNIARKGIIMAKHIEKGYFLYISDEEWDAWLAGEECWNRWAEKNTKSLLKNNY
Test: cell_activity; PAM not stated; E. coli depletion, 30 C
Experimental: Overnight grown pre-cultures were diluted into fresh 60 ml LB-Kanamycin (25 μg/ml) (Example 4) or LB-Kanamycin (25μg/ml)/Nourseothricin (50 μg/ml) medium (Example 5) to obtain an optical density at 600 nm (OD600) of 0.06. The inoculated medium was incubated at 30° C. on a horizontal shaker at 250 rpm until the culture reached an optical density at OD600 of 0.2. For induced BMC (NN) nuclease expression, 600 μl 20% L-(+)-arabinose (w/v) was added to the culture at a final concentration of 0.2% (v/v). The cultivation was continued until the culture reached an optical density at OD600 of 0.5. Subsequently 50 ml culture was transferred into one 50 ml conical tube and harvested by centrifugation at 4° C. for 5 min and 4000×g. Pelleted cells were resuspended in 50 ml ultrapure water (ice-cold) and centrifuged at 4° C. for 5 min and 4000×g.
This washing procedure was repeated twice. Washed cells were resuspended in 25 ml 10% (w/w) glycerin and re-centrifuged at 4° C. for 5 min and 4000×g. The pelleted cells were resuspended in 5 ml 10% (w/w) glycerin. After the final centrifugation step at 4° C. for 5 min and 4000×g, the cells were resuspended in 125 μl 10% (w/w) glycerin. Aliquots of 25 μl competent cells were stored at −80° C. until use. For the transformation procedure, aliquots of competent cells were thawed on ice and 50-100 ng plasmid DNA (CRISPR/gRNA-Ec) was added. Prepared cells were electroporated at 1800 V, 25 μF and 200 Ω in 1 mm gap size electroporation cuvettes, using the Bio-Rad Gene Pulser Xcell Electroporation System. Subsequently, 975 μL of NEB® 10-beta/Stable Outgrowth Medium was added immediately after the pulse to the transformed cells. Regeneration was done at 30° C. on a horizontal shaker at 250 rpm. Finally, 25-100 μl of the cell suspension was plated onto selective M9-Glucose agar plates supplemented with Kanamycin (25 μg/ml)/Ampicillin (100 μg/ml) (Example 4) or Kanamycin (25 μg/ml)/Ampicillin (100 μg/ml)/Nourseothrin (50 μg/ml) (Example 5). Growth of transformed E. coli cells on selective agar plates was screened for 48 h at 30° C.
As described above, each of the BMC01, BMC02, BMC03, BMC04, BMC05, BMC07, BMC08, BMC09, BMC10, BMC11, BMC12, BMC13, BMC14, or BMC15 nucleases was co-transformed into E. coli with a gRNA targeting the E. coli malQ gene to visualize a) the activity and b) the DNA targeting efficiency of the BMC nucleases.

B1: malQ gRNA (BMC stem-loop + 24 nt spacer) ; malQ protospacer (ssRNA ; dsDNA)
RNA: GAUUUCUACUAUUGUAGAUGUGGCGGUACGUUGAUGCAUCGCG
DNA 1: GTGGCGGTACGTTGATGCATCGCG
DNA 2: CGCGATGCATCAACGTACCGCCAC
activity: > 99.9 % colony reduction

Source: patent publication US20250277199, “NOVEL CRISPR-CAS NUCLEASES FROM METAGENOMES” (Brain Biotech AG, published 2025)
